Measurements published in the supplement of paper PMC10126150.
± gives the standard deviation of the averaged measurements.

System: ATP
Experiment: switch fluorescence ratio, 500 uM ATP over buffer (Cy3 cluster intensity, sum of 5 cycles each) (fold (ratio)); higher = stronger signal-on switching upon ATP binding; sequences stand for … in TCGTCGGCAGCGTCAGATGTGTATAAGAGACAGTTTTTTTTTTTTTTTTTTTTTTTTT…TC
Settings: aptamer strand: ATP DNA aptamer (quencher-CACCTGGGGGAGTATTGCGGAGGAAGG + anchor), 100 nM annealed; ATP concentration: 500 uM
Procedure, shortened: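 Per cluster, summed Cy3 intensity from the target cycles was divided by that from the buffer cycles to give the fluorescence ratio, then averaged per switch-domain sequence. Clusters outside 100-1000 RFU were excluded. The Cy3-labelled switching-strand clusters, on a modified Illumina MiSeq flow-cell, were annealed to 100 nM quencher-labelled ATP aptamer and imaged in selection buffer, then after 15 min with 500 uM ATP at 22 °C, for five cycles with NaOH stripping and re-annealing between them.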
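Note: ATP exposure 15 min at 22 °C before imaging.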

Row | Sequence | switch fluorescence ratio
1 | GGCGTGGCGG | 0.994 ± 0.019
2 | GGCGTTGCGG | 0.9849 ± 0.0058
3 | GGCGTTTTCG | 0.997 ± 0.044
4 | GGCTAAGACT | 0.988 ± 0.024
5 | GGCTACTGAG | 1.08 ± 0.066
6 | GGCTAGTGAC | 1 ± 0.03
7 | GGCTATGTGG | 0.987 ± 0.03
8 | GGCTATTTTG | 0.999 ± 0.073
9 | GGCTCGGCAG | 1.05 ± 0.043
10 | GGCTCGGTAC | 1.24 ± 0.13
11 | GGCTCTTAGG | 0.975 ± 0.03
12 | GGCTGAAAGT | 0.991 ± 0.016
13 | GGCTGACATT | 0.979 ± 0.046
14 | GGCTGACCGG | 1 ± 0.048
15 | GGCTGACGTC | 1 ± 0.038
16 | GGCTGAGGCG | 0.965 ± 0.024
17 | GGCTGATGCA | 0.938 ± 0.034
18 | GGCTGCAATG | 1.39 ± 0.069
19 | GGCTGGAAAC | 1.23 ± 0.22
20 | GGCTGGGCTG | 0.991 ± 0.029
21 | GGCTGGGGCA | 0.979 ± 0.021
22 | GGCTGGTGTG | 1.02 ± 0.029
23 | GGCTGTTAAA | 0.978 ± 0.019
24 | GGCTTAAGGG | 0.972 ± 0.025
25 | GGCTTAATGA | 0.971 ± 0.029

Row | Sequence | switch fluorescence ratio
26 | GGCTTAGGGG | 0.979 ± 0.022
27 | GGCTTATAGG | 1.02 ± 0.036
28 | GGCTTCACGA | 1.07 ± 0.014
29 | GGCTTCTGCT | 0.959 ± 0.022
30 | GGCTTGAAGG | 1.03 ± 0.032
31 | GGCTTGGCGT | 0.98 ± 0.034
32 | GGCTTGGGTT | 1.01 ± 0.039
33 | GGCTTTATTC | 0.984 ± 0.044
34 | GGCTTTCCTG | 1.1 ± 0.089
35 | GGCTTTGAGG | 1.01 ± 0.019
36 | GGCTTTGCCC | 0.9669 ± 0.0028
37 | GGCTTTTACG | 1.03 ± 0.042
38 | GGCTTTTGTG | 0.974 ± 0.036
39 | GGCTTTTTTT | 0.994 ± 0.029
40 | GGGAAAAAAG | 0.994 ± 0.026
41 | GGGAAAAACA | 1.02 ± 0.05
42 | GGGAAAAAGA | 1.03 ± 0.012
43 | GGGAAAAATA | 1.24 ± 0.51
44 | GGGAAAAGA | 1.04 ± 0.018
45 | GGGAAAATGG | 1.01 ± 0.016
46 | GGGAAACAAA | 0.96 ± 0.059
47 | GGGAAACAAT | 1.55 ± 0.91
48 | GGGAAAGATG | 0.986 ± 0.042
49 | GGGAAAGGGC | 0.961 ± 0.021
50 | GGGAAAGGGT | 1 ± 0.014

Row | Sequence | switch fluorescence ratio
51 | GGGAAATAAA | 0.988 ± 0.013
52 | GGGAAATAGT | 0.9877 ± 0.0057
53 | GGGAAATATT | 1.06 ± 0.14
54 | GGGAAATCAT | 0.997 ± 0.015
55 | GGGAAATTAT | 0.9917 ± 0.0045
56 | GGGAACTTGG | 0.986 ± 0.0099
57 | GGGAAGAAAT | 1 ± 0.037
58 | GGGAAGACGA | 1.01 ± 0.014
59 | GGGAAGAGAG | 0.985 ± 0.021
60 | GGGAAGGCCA | 0.973 ± 0.024
61 | GGGAAGGGGC | 1.02 ± 0.018
62 | GGGAAGGGTA | 1 ± 0.033
63 | GGGAAGGTTT | 1.01 ± 0.012
64 | GGGAAGTTTG | 1 ± 0.038
65 | GGGAATAGAT | 0.9835 ± 0.002
66 | GGGAATAGCT | 0.999 ± 0.03
67 | GGGAATAGGG | 1.01 ± 0.02
68 | GGGAATATTA | 1.04 ± 0.023
69 | GGGAATCGTA | 1.04 ± 0.015
70 | GGGAATCGTG | 0.983 ± 0.012
71 | GGGAATGGGT | 1.01 ± 0.014
72 | GGGAATTACT | 1.87 ± 1.1
73 | GGGAATTTAA | 1.02 ± 0.019
74 | GGGAATTTGC | 1 ± 0.036
75 | GGGAATTTGT | 0.9942 ± 0.0096

Row | Sequence | switch fluorescence ratio
76 | GGGAATTTTT | 1 ± 0.053
77 | GGGACAAGAT | 0.999 ± 0.026
78 | GGGACACGA | 0.988 ± 0.024
79 | GGGACAGAGG | 0.988 ± 0.0047
80 | GGGACAGCCT | 1.01 ± 0.017
81 | GGGACCGGCA | 1.01 ± 0.029
82 | GGGACCTTGT | 1.01 ± 0.064
83 | GGGACGATTT | 0.995 ± 0.017
84 | GGGACGGGGC | 1.06 ± 0.041
85 | GGGACGGTAG | 1.04 ± 0.034
86 | GGGACTCCAA | 1.24 ± 0.35
87 | GGGACTGGGA | 1 ± 0.031
88 | GGGACTTAGC | 1.02 ± 0.022
89 | GGGAGAACGG | 0.977 ± 0.046
90 | GGGAGAAGAG | 0.979 ± 0.036
91 | GGGAGAAGGG | 0.95 ± 0.023
92 | GGGAGAGAAT | 1.005 ± 0.0058
93 | GGGAGAGACT | 1.03 ± 0.014
94 | GGGAGAGGGC | 0.991 ± 0.013
95 | GGGAGATAGA | 0.982 ± 0.052
96 | GGGAGATGAC | 1.01 ± 0.022
97 | GGGAGGAGCA | 1.01 ± 0.073
98 | GGGAGGAGGT | 0.98 ± 0.024
99 | GGGAGGATTT | 0.987 ± 0.013
100 | GGGAGGCCGT | 1.04 ± 0.027
